Where “and” joins values, the source holds several entries; their conditions need not be identical. Equal entries are not always repeated.
Columns and labels:
G9a and GLP = target: T1, G9a and GLP (Homo sapiens, UniProt Q96KQ7+Q9H9B1); experiment: Triple SILAC pull-down after UNC0638 treatment of 293T cells, DMSO/UNC0638 ratio of protein captured by 3×MBT; format: cell-based; conditions: for Relative to UNC0638 UNC Heavy: UNC0638 in heavy SILAC media; for Relative to UNC0638 UNC Light: UNC0638 in light SILAC media; for Relative to UNC0638 Average: average of UNC Light and UNC Heavy experiments; for Candidate G9a/GLP target: reduced association with 3xMBT after UNC0638 treatment;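 on all read-outs here: mass spectrometry (Q-Exactive) SILAC quantitation, DMSO/UNC0638 ratio computed after subtracting 3×MBTD355N mutant pull-down background, only proteins with at least twofold 3×MBT over mutant signal considered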
T1 construct: endogenous in cells; host or cells: HEK 293T
T1 sequence (Q96KQ7 2-1210 limits assumed): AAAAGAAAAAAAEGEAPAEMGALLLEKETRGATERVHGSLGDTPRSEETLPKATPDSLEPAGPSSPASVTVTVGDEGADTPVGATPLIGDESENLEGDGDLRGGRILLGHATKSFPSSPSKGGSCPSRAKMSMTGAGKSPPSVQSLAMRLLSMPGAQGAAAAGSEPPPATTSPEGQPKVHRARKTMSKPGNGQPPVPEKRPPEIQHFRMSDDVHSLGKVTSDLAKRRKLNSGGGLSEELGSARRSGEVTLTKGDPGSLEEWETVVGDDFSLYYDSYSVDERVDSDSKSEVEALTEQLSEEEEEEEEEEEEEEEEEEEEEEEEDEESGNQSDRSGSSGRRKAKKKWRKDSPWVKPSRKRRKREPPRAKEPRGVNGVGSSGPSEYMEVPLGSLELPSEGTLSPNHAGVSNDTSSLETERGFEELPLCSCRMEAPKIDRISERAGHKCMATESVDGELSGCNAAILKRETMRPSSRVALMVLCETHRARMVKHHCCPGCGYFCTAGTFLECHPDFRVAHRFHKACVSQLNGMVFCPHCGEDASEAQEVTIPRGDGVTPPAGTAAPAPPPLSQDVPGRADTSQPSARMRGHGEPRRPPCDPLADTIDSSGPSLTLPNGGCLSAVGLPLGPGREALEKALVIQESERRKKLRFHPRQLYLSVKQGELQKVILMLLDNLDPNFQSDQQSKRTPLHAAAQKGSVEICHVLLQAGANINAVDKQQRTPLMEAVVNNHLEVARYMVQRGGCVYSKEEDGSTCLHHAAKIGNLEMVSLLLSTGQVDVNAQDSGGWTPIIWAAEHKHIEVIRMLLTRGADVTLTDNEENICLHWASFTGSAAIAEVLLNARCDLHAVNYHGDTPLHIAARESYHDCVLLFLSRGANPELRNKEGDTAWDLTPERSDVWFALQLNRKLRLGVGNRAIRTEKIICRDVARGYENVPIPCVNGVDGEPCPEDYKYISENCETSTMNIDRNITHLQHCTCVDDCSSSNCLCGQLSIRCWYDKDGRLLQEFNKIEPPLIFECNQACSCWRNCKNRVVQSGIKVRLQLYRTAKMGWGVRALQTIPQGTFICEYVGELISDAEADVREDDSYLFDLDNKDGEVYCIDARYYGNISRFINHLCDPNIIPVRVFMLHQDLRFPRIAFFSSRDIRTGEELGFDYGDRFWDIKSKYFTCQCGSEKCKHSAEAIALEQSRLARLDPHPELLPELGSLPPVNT
T1 sequence (Q9H9B1 2-1298 limits assumed): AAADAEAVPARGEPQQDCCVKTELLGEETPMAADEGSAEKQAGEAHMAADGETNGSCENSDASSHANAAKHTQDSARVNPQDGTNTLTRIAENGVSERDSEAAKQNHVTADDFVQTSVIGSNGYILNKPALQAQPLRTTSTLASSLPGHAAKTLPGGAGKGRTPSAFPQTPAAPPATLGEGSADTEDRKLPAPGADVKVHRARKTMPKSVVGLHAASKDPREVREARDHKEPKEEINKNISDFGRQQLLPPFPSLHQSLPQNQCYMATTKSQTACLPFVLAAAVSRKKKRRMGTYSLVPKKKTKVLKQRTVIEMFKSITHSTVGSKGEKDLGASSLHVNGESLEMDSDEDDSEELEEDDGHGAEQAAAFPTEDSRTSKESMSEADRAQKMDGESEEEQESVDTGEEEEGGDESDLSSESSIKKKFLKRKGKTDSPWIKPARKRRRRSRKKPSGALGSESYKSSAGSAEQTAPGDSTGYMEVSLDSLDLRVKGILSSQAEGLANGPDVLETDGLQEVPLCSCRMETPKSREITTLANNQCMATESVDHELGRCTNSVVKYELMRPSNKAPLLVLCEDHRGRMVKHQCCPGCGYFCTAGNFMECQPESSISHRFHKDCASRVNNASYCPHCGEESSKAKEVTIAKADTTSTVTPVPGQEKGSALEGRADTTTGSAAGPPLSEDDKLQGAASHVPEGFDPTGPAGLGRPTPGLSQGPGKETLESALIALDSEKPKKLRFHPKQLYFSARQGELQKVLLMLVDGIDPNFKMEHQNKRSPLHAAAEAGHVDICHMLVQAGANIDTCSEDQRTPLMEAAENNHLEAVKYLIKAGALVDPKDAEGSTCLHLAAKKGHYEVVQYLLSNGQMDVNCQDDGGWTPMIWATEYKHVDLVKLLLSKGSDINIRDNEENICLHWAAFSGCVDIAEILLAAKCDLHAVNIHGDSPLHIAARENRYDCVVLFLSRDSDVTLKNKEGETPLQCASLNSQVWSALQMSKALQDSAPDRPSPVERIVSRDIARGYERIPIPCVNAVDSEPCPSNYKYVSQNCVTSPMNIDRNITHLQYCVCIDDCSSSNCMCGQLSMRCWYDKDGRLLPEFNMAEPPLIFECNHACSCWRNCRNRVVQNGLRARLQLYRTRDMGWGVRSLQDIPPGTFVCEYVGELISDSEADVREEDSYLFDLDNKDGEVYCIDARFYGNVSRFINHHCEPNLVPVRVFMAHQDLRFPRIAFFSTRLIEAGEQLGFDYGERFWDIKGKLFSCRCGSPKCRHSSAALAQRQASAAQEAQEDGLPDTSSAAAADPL

3×MBT domain of L3MBTL1 = experiment: Triple SILAC pull-down, 3xMBT/3xMBTD355N ratio (cytoplasmic, nuclear and chromatin fractions of 293T cells); format: binding, human; conditions: for 3xMBT/D355N UNC Heavy: experiment with UNC0638 in heavy SILAC media; for 3xMBT/D355N UNC Light: experiment with UNC0638 in light SILAC media;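 on all read-outs here: proteins quantified with MaxQuant, requiring at least two unique peptides and quantification in both label directions, normalized to the mean of proteins from a digested loading control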
[1] = SILAC ratio DMSO relative to UNC0638, pull-down with 3xMBT, all values in log base 2
[2] = SILAC ratio 3xMBT vs 3xMBTD355N pull-down, 293T cells, all values in log base 2
[3] = SILAC ratio DMSO/UNC0638 of protein pulled down with 3xMBT
[4] = SILAC ratio, pull-down 3xMBT vs 3xMBTD355N

| Substance | Relative to UNC0638 UNC Heavy (G9a and GLP; [1]) [log base 2] | Relative to UNC0638 UNC Light (G9a and GLP; [1]) [log base 2] | Relative to UNC0638 Average (G9a and GLP; all values in log base 2) [log base 2] | 3xMBT/D355N UNC Heavy (3×MBT domain of L3MBTL1; [2]) [log base 2] | 3xMBT/D355N UNC Light (3×MBT domain of L3MBTL1; [2]) [log base 2] | Relative to UNC0638 UNC Heavy (G9a and GLP; [3]) | Relative to UNC0638 UNC Light (G9a and GLP; [3]) [log base 2] | Relative to UNC0638 Average (G9a and GLP) | 3xMBT/D355N UNC Heavy (3×MBT domain of L3MBTL1; [4]) | 3xMBT/D355N UNC Light (3×MBT domain of L3MBTL1; [4]) | Candidate G9a/GLP target (G9a and GLP) |
| --- | --- | --- | --- | --- | --- | --- | --- | --- | --- | --- | --- |
| STRAP | 0.24 | −0.15 | 0.05 | 1.61 | 1.80 |  |  |  |  |  |  |
| HNRNPK |  |  |  |  |  | 0.17 log base 2 and 0.13 log base 2 | 0.10 | 0.13 log base 2 and 0.11 log base 2 | 3.13 log base 2 and 2.55 log base 2 | 3.64 log base 2 and 3.36 log base 2 |  |
| FBXO22 | 0.58 | −0.59 | 0.00 | 3.56 | 0.77 |  |  |  |  |  |  |
| TARDBP |  |  |  |  |  | 0.18 log base 2 | 0.21 | 0.20 log base 2 | 2.44 log base 2 | 2.40 log base 2 |  |
| HSPA8 |  |  |  |  |  | 0.28 log base 2 | 0.06 | 0.17 log base 2 | 2.05 log base 2 | 1.48 log base 2 |  |
| DDX39A |  |  |  |  |  | 0.36 log base 2 | 0.01 | 0.18 log base 2 | 2.00 log base 2 | 1.53 log base 2 |  |
| NUDT21 |  |  |  |  |  | 0.20 log base 2 | 0.04 | 0.12 log base 2 | 3.65 log base 2 | 3.15 log base 2 |  |
| LANCL1 |  |  |  |  |  | 0.14 log base 2 | 0.23 | 0.18 log base 2 | 1.33 log base 2 | 1.63 log base 2 |  |
| TFG |  |  |  |  |  | 0.16 log base 2 | 0.22 | 0.19 log base 2 | 4.21 log base 2 | 4.03 log base 2 |  |
| NBN | −0.14 | −0.46 | −0.30 | 1.68 | 1.52 |  |  |  |  |  |  |
| MPG |  |  |  |  |  | 0.52 log base 2 | −0.04 | 0.24 log base 2 | 1.39 log base 2 | 1.87 log base 2 |  |
| MAP4K5 | 0.63 | −0.72 | −0.04 | 1.69 | 0.87 |  |  |  |  |  |  |
| PSIP1 |  |  |  |  |  | 0.17 log base 2 | 0.15 | 0.16 log base 2 | 2.72 log base 2 | 2.92 log base 2 |  |
| FXR1 |  |  |  |  |  | 1.23 log base 2 | −1.01 | 0.11 log base 2 | 1.60 log base 2 | 1.73 log base 2 |  |
| SMARCA5 |  |  |  |  |  | 0.47 log base 2 | 0.32 | 0.39 log base 2 | 2.49 log base 2 | 2.61 log base 2 | ✓ |
| NUMA1 |  |  |  |  |  | 0.90 log base 2 | −0.32 | 0.29 log base 2 | 0.83 log base 2 | 3.33 log base 2 |  |
| MDC1 |  |  |  |  |  | 0.36 log base 2 | 0.11 | 0.24 log base 2 | 2.31 log base 2 | 2.83 log base 2 |  |
| RECQL |  |  |  |  |  | 0.71 log base 2 | 0.21 | 0.46 log base 2 | 3.43 log base 2 | 5.03 log base 2 | ✓ |
| TUBB4B |  |  |  |  |  | 0.42 log base 2 | 0.03 | 0.23 log base 2 | 1.05 log base 2 | 1.75 log base 2 |  |
| MLLT4 | 0.16 | 0.04 | 0.10 | 3.31 | 2.39 |  |  |  |  |  |  |
| FERMT2 | −1.93 | −0.07 | −1.00 | 3.33 | 1.42 |  |  |  |  |  |  |
| ILF2 |  |  |  |  |  | 0.15 log base 2 | 0.22 | 0.18 log base 2 | 3.72 log base 2 | 3.45 log base 2 |  |
